The target of this assay is human NGF (Homo sapiens, UniProt P01138). In words: BIAcore screening assay of Fab library clones (koff). The format is binding. The conditions noted are these: for binding affinity compared with the 8L2-6D5 template: single CDR3 mutation. As to the method:
Small scale expression in 96 wells plates was optimized for screening Fab libraries. Starting from E. coli transformed with a Fab library, colonies were picked to inoculate both a master plate (agar LB+Ampicillin (50 μg/ml)+2% Glucose) and a working plate (2 ml/well, 96 well/plate containing 1.5 mL of LB+Ampicillin (50 μg/ml)+2% Glucose). Both plates were grown at 30° C. for 8-12 hours. The master plate was stored at 4° C. and the cells from the working plate were pelleted at 5000 rpm and resuspended with 1 mL of LB+Ampicillin (50 μg/ml)+1 mM IPTG to induce expression of Fabs. Cells were harvested by centrifugation after 5 h expression time at 30° C., then resuspended in 500 μL of buffer HBS-EP ([…] buffer pH 7.4, 150 mM NaCl, 0.005% P20, 3 mM EDTA). Lysis of HBS-EP resuspended cells was attained by one cycle of freezing (−80° C.) then thawing at 37° C. Cell lysates were centrifuged at 5000 rpm for 30 min to separate cell debris from supernatants containing Fabs. The supernatants were then injected into the BIAcore plasmon resonance apparatus to obtain affinity information for each Fab. Clones expressing Fabs were rescued from the master plate to sequence the DNA and for large scale Fab production and detailed characterization as described below.
Affinities of anti-NGF Fabs and monoclonal antibodies were determined using the BIAcore300™ surface plasmon resonance (SPR) system (BIAcore, INC, Piscaway N.J.). CM5 chips were activated with N-ethyl-N′-(3-dimethylaminopropyl)-carbodimide hydrochloride (EDC) and N-hydroxysuccinimide (NHS) according to the supplier's instructions. Human NGF was diluted into 10 mM sodium acetate pH 4.0 and injected over the activated chip at a concentration of 0.005 mg/mL. Using variable flow time across the individual chip channels, two ranges of antigen density were achieved: 100-200 response units (RU) for detailed kinetic studies and 500-600 RU for screening assays. The chip was blocked with ethanolamine. […] HBS-EP buffer (0.01M HEPES, pH 7.4, 0.15 NaCl, 3 mM EDTA, 0.005% Surfactant […]) was used as running buffer for all the BIAcore assays.
A screening BIAcore assay was optimized to determine the affinity of Fab clones from libraries. Supernatants of small culture lysates were injected at 50 μl/min for 2 min. Dissociation times of 10 to 15 minutes were used for determination of a single exponential dissociation rate (koff) using BIAevaluation software. […] Clones showing improved (slower) koff values were expressed at large scale and full kinetic parameters, kon and koff, were determined on purified protein. The assay was capable of detecting differences in affinity that were approximately 2-fold or larger.
For affinity screening experiments, each library was further paired with the corresponding CDR-grafted light or heavy chain (for example, the H1/H2 library was paired with CDR-grafted light chain), the antibody was expressed, and affinity to human NGF of the individual clones was screened using the BIACORE surface plasmon resonance (SPR) system (BIAcore, Inc. Piscataway, N.J.) according to the manufacturer's instructions and as described above. koff, kon and KD were determined. Antibody clones were ranked based on koff rates, since generally most variation in affinity is seen in koff rates, and further because koff rates are independent of antibody concentration.
20-80 clones from each small library were screened using BIAcore analysis as described herein. Samples were simultaneously analyzed by BIAcore for binding affinity to NGF in one channel of the BIAcore chip and for presence of Fab by binding to a penta-histag antibody in another channel of the sensor chip, to detect the his tag at the C terminus of the heavy chain. Clones that expressed protein were classified as having the same affinity, worse affinity, better affinity or no binding, using koff to classify: The results of this analysis are shown in Table 5.
A general note: Surface plasmon resonance follows binding to a sensor surface in real time, without labels.

Setting [1] is: Table 3: heavy chain library clones paired with 6D5 light chain.
[2] abbreviates: Table 3: light chain library clones paired with 8L2 heavy chain.
The mark [3] stands for this setting: Table 6: single CDR H3 or L3 mutation in 8L2-6D5 template.

Changes are numbered by the printed parent chain. In names and notes the source's numbering stands.

Chain of human NGF (P01138 122-241): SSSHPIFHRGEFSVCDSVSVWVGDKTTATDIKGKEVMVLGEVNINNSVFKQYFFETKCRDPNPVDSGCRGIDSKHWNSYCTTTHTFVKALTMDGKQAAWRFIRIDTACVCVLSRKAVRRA

B1: 8L2-6D5: CDR-grafted antibody with V71K heavy chain framework substitution; template for affinity maturation (antibody, V domains shown)
VH: QVQLQESGPGLVKPSETLSLTCTVSGFSLIGYDINWIRQPPGKGLEWIGMIWGDGTTDYNSALKSRVTISKDTSKNQFSLKLSSVTAADTAVYYCARGGYYYGTSYYFDYWGQGTLVTVS
VL: DIQMTQSPSSLSASVGDRVTITCRASQDISNHLNWYQQKPGKAPKLLIYYISRFHSGVPSRFSGSGSGTDFTFTISSLQPEDIATYYCQQSKTLPYTFGQGTKLEIKRT
For orientation: koff means the first-order rate constant of dissociation. For B1, the koff by setting is: under setting [1], 0.001 s⁻¹; under setting [2], “**1e3 s-1”; under setting [3], 0.001 s⁻¹; (Table 8: CDR L3 H3 combination mutations, 8L2-6D5 template) 0.001 s⁻¹; (template used to create the library) 1×10^−3 s^−.

B2: Y101W: 8L2-6D5 template with CDR H3 mutation Y101W (SEQ ID NO:46) (antibody, V domains shown)
VH: B1 VH with Y101W
VL: B1 VL
On to B2, for which the “binding affinity compared with the 8L2-6D5 template” value was “significantly increased binding affinity”. Also, the off-rate constant (koff) under setting [3] came to 0.00056 s⁻¹.

B3: L129: light chain library clone, CDRL1 SEQ ID NO:18, CDRL2 SEQ ID NO:19 (antibody, V domains shown)
VH: B1 VH
VL: B1 VL with D28S, H32N, I51T
For the molecule B3, the koff under setting [2] was determined as 0.00045 s⁻¹.

B4: L81: light chain library clone, CDRL1 SEQ ID NO:24, CDRL2 SEQ ID NO:25 (antibody, V domains shown)
VH: B1 VH
VL: B1 VL with S26F, D28A, H32Q, S56T
Consider B4, for which the off-rate constant (koff) under setting [2] worked out at 0.00074 s⁻¹.

B5: H17: heavy chain library clone, CDRH1 SEQ ID NO:42, CDRH2 SEQ ID NO:43 (antibody, V domains shown)
VH: B1 VH with I34A, N35S, M50G, A62S, L63V
VL: B1 VL
One may read the Kd as the concentration at which binding is half-saturated. B5 yielded a dissociation rate constant (koff) under setting [1] of 0.00061 s⁻¹. Besides, the dissociation constant (Kd) (Table 3: heavy chain library clones, KD calculated using kon 4e4 M^−1s^−1) is 15.2 nM.

B6: H18: heavy chain library clone, CDRH1 SEQ ID NO:36, CDRH2 SEQ ID NO:37 (antibody, V domains shown)
VH: B1 VH with I34A, N35T, M50G, L63V
VL: B1 VL
The molecule B6 registered a dissociation rate constant (koff) under setting [1] of 0.00042 s⁻¹.

B7: G103A: 8L2-6D5 template with CDR H3 mutation G103A (SEQ ID NO:49) (antibody, V domains shown)
VH: B1 VH with G103A
VL: B1 VL
In the case of B7, the “binding affinity compared with the 8L2-6D5 template” value is given as “significantly increased binding affinity”. For the same molecule, under setting [3], the off-rate constant (koff) is 0.00016 s⁻¹.

B8: L97: light chain library clone, CDRL1 SEQ ID NO:22, CDRL2 SEQ ID NO:23 (antibody, V domains shown)
VH: B1 VH
VL: B1 VL with D28S, H32Q, I51V
B8: the koff under setting [2] came out at 0.00056 s⁻¹.

B9: S105T: 8L2-6D5 template with CDR H3 mutation S105T (SEQ ID NO:48) (antibody, V domains shown)
VH: B1 VH with S105T
VL: B1 VL
On to B9, for which the “binding affinity compared with the 8L2-6D5 template” value is “significantly increased binding affinity”. The same molecule had a koff under setting [3] of 0.00064 s⁻¹.

B10: H225: heavy chain library clone, CDRH1 SEQ ID NO:34, CDRH2 SEQ ID NO:35 (antibody, V domains shown)
VH: B1 VH with I34V, N35T, M50G, A62S, L63V
VL: B1 VL
Under setting [1], B10 gave a koff of 0.00038 s⁻¹.

B11: H19: heavy chain library clone, CDRH1 SEQ ID NO:30, CDRH2 SEQ ID NO:31 (antibody, V domains shown)
VH: B1 VH with I34L, M50I, L63V
VL: B1 VL
With B11, the koff under setting [1] was found to be 0.00024 s⁻¹.

B12: Y100R: 8L2-6D5 template with CDR H3 mutation Y100R (antibody, V domains shown)
VH: B1 VH with Y100R
VL: B1 VL
For the molecule B12, the koff under setting [3] was found to be 0.0011 s⁻¹.

B13: H227: heavy chain library clone, CDRH1 SEQ ID NO:40, CDRH2 SEQ ID NO:41 (antibody, V domains shown)
VH: B1 VH with N35S, M50Q, A62S, L63V
VL: B1 VL
For the molecule B13, under setting [1], the koff is 0.00054 s⁻¹.

B14: S105A: 8L2-6D5 template with CDR H3 mutation S105A (SEQ ID NO:47) (antibody, V domains shown)
VH: B1 VH with S105A
VL: B1 VL
With B14, the “binding affinity compared with the 8L2-6D5 template” value was “significantly increased binding affinity”. This molecule gave a koff under setting [3] of 0.00051 s⁻¹.

B15: H28: heavy chain library clone, CDRH1 SEQ ID NO:44, CDRH2 SEQ ID NO:45 (antibody, V domains shown)
VH: B1 VH with I34S, N35T, M50S
VL: B1 VL
Turning to B15, under setting [1], the koff came to 0.00075 s⁻¹.

B16: H109: heavy chain library clone, CDRH1 SEQ ID NO:28, CDRH2 SEQ ID NO:29 (antibody, V domains shown)
VH: B1 VH with I34S, M50I
VL: B1 VL
As to B16, under setting [1], the koff came to 0.00016 s⁻¹.

B17: S91E: 8L2-6D5 template with CDR L3 mutation S91E (SEQ ID NO:50) (antibody, V domains shown)
VH: B1 VH
VL: B1 VL with S91E
Regarding B17, the “binding affinity compared with the 8L2-6D5 template” value is on record as “significantly increased binding affinity”. The off-rate constant (koff) under setting [3] was 0.00025 s⁻¹.

B18: Y100L: 8L2-6D5 template with CDR H3 mutation Y100L (antibody, V domains shown)
VH: B1 VH with Y100L
VL: B1 VL
B18 displayed an off-rate (koff) under setting [3] of 0.0012 s⁻¹.

B19: L208: light chain library clone, CDRL1 SEQ ID NO:20, CDRL2 SEQ ID NO:21 (antibody, V domains shown)
VH: B1 VH
VL: B1 VL with D28Y, I51T
As for B19, the koff under setting [2] was determined as 0.00046 s⁻¹.

B20: H222: heavy chain library clone, CDRH1 SEQ ID NO:32, CDRH2 SEQ ID NO:33 (antibody, V domains shown)
VH: B1 VH with I34V, N35T, M50G, L63V
VL: B1 VL
B20 came in with a koff under setting [1] of 0.00038 s⁻¹.

Source of the values: patent publication US20080182978A1, “ANTI-NGF ANTIBODIES AND METHODS USING SAME” (RINAT NEUROSCIENCE CORP, priority 2002, published 2008).
